{"source": "patent US10877024B2", "about": "“Methods of determining interferon having direct inhibitory effects on tumors and uses thereof” (SUPERLAB FAR EAST LIMITED, priority 2015, dated 2020)", "molecules": {"B1": {"name": "rSIFN-co: Recombinant super-compound interferon; amino acid sequence SEQ ID NO: 1 (same as INFERGEN), encoded by novel nucleotide sequence SEQ ID NO: 2 (protein)", "chain": "MCDLPQTHSLGNRRALILLAQMRRISPFSCLKDRHDFGFPQEEFDGNQFQKAQAISVLHEMIQQTFNLFSTKDSSAAWDESLLEKFYTELYQQLNDLEACVIQEVGVEETPLMNVDSILAVKKYFQRITLYLTEKKYSPCAWEVVRAEIMRSFSLSTNLQERLRRKE", "modifications": "Amino acid sequence of recombinant interferon"}}, "key": {"[1]": {"tested_on": "Human Colon Cancer HT-29 Xenografts", "test": "rSIFN-co on human colon cancer HT-29 xenografts in nude mice", "assay_type": "in vivo", "details": "for TV(mm^3, mean ± SD) (D 0): day 0; for % Inhibition / T/C (%) / TV(mm^3, mean ± SD) (D 28): day 28"}, "different cancer cells": {"tested_on": "different cancer cells", "test": "Cell viability, Am-Blue assay, 48 hr, statements over all cell lines", "assay_type": "cell-based, human", "details": "any of the cancer cell lines", "method": "Cell culture and reagents. human lung cancer cell lines (A549, H1299, H460, Calu-1), human liver cancer cell lines (SMMC-7721, Huh-7, CL-1), human cervical carcinoma cell line (Hela), human breast cancer cell line (MDA-MB-231), human pancreatic cancer cell line (PANC-1) and human colon cancer cell lines (SW620, HT29, SW480) were purchased from the Shanghai Cell Collection (Shanghai, China). The above cell lines were cultured in 5% CO2 at 37° C. in corresponding complete growth medium formulated by the Shanghai Cell Collection, with 10% heat-inactivated fetal bovine serum (Biochrom, Germany), supplemented with 4 mM glutamine, 50 U/ml penicillin and […] streptomycin.\nAbout 5×10^3 cells in 100 μl complete medium per well were plated in 96-well plates, incubated overnight, and then treated with IFN α-2b or rSIFN-co at concentrations of 100 μg/ml, 50 μg/ml, 25 μg/ml, 12.5 μg/ml, 6.25 μg/ml, 3.13 μg/ml, 1.56 μg/ml, 0.78 μg/ml, 0.39 μg/ml, and 0.20 μg/ml, respectively, for about 48 hr, at which time the cells were harvested for analysis. The cell viability rate was evaluated by SunBio Am-Blue assay kit (Cat #: SBAB8025, Shanghai SBO Medical Biotechnology Co., Ltd, Shanghai, China). […] After shaking the plates for 30 seconds, the absorbance for each well was read at both 570 nm and 595 nm by a Thermo Scientific Microplate Reader (Thermon Fisher Scientific, Inc., Lowell, Mass.). […]"}, "DKK-3": {"tested_on": "DKK-3", "test": "qPCR of tumor suppressor gene", "assay_type": "cell-based, human", "details": "A549 cells, 10 mcg/ml, 24 hr"}, "BATF2": {"tested_on": "BATF2", "test": "qPCR of tumor suppressor gene", "assay_type": "cell-based, human", "details": "A549 cells, 10 mcg/ml, 24 hr", "description": "(§1) After 24 hr of treatment, total cellular mRNA was isolated using TRIZOL Reagent, and cDNA was synthesized, and further subjected to qPRC using specific primers for DKK3, KLF4 and BATF2. The following primers were used: for BATF2, sense primers: 5′-[…]-3′ (SEQ ID NO: 16) and antisense primers: 5′-[…]-3′ (SEQ ID NO: 17); for DKK3, sense primers: 5′-[…]-3′(SEQ ID NO: 18) and antisense primers: 5′-[…]-3′ (SEQ ID NO: 19); for KLF4, sense primers: 5′-[…]-3′ (SEQ ID NO: 20) and antisense primers: 5′-[…]-3′ (SEQ ID NO: 21).\n(§2) The experiment was conducted in triplicate and normalized with the mock control group. Results, shown in FIG. 12, were expressed as relative mRNA expression level in relation to that of GAPDH."}, "KLF4": {"tested_on": "KLF4", "test": "qPCR of tumor suppressor gene", "assay_type": "cell-based, human", "details": "10 mcg/ml, 24 hr", "description": "as §1, §2"}, "[2]": {"tested_on": "STAT1 (Tyr701), STAT2 (Tyr690), STAT3(Tyr705)", "test": "STAT phosphorylation by Western Blot", "assay_type": "cell-based, human", "details": "A549 cells and Hela cells, 10 μg/ml, 0-240 minutes", "description": "After treatment, the cells were collected, cellular proteins were extracted and loaded onto SDS-PAGE […] for Western Blot analysis to observe the phosphorylation of STAT1 (Tyr701), STAT2 (Tyr690), and STAT3(Tyr705). GAPDH was used as a loading control.\nThe primary antibodies used were: STAT1 (1:1000, Cat #: 9175S), Tyr701 phosphorylated-STAT1 (1:1000, Cat #: 9167S), STAT2 (1:500, Cat #4594), Tyr690 phosphorylated-STAT2 (1:1000, Cat #: 441S), STAT3 (1:1000, Cat #: 9132), Tyr705 phosphorylated-STAT3 (1:1000, Cat #: 9145S). Anti-mouse (Cat #:sc-2005) or rabbit (Cat #: sc-2004) or goat (Cat #: sc-2020) HRP-conjugated secondary antibodies (Santa Cruz Technology, Santa Cruz, Calif.) were used at concentrations of 1:2000. Blots were visualized by use of Luminescence/Fluorescence Imaging LAS4000 System (GE Healthcare Life Sciences, USA) with super signal west pico chemiluminescnet substrate kit (Thermo Scientific, USA)."}, "[3]": {"tested_on": "human lung cancer SPC-A4 xenografts", "details": "for TV(mm^3, mean ± SD) (D 0): day 0; for % Inhibition / RTV (mean ± SD) / T/C (%) / TV(mm^3, mean ± SD) (D 21): day 21", "quoted_text": "Under sterile conditions, well-grown tumors were cut into 1.5 mm^3 fragments and one such fragment was injected by trocar needle into the right flank of each study animal. […] Individual tumor size (length and width) was measured twice per week with microcalipers. Tumor volume (V) was calculated using the formula: V=(length×width^2)/2. Individual relative tumor volume (RTV) was calculated using the formula: RTV=Vt/V0, where Vt is the tumor volume on the day of measurement and V0 is the tumor volume on the day of first treatment. Therapeutic effect of the test article or control article was expressed in terms of T/C (%), using the formula: T/C (%)=(mean RTV of the treated group/mean RTV of the control group)×100%; and in terms of % Inhibition, using the formula: % Inhibition=100%−T/C %.\nThe 1.5 mm^3 fragments were then used for s.c. implantation into the test animals. The body weight of the animals averaged 22±2 g at dose initiation."}, "[4]": {"details": "0.05 mg/mouse i.t. every other day"}, "[5]": {"details": "0.10 mg/mouse i.t. every other day"}, "[6]": {"details": "0.15 mg/mouse i.t. every other day"}}, "note": "Like-named read-outs stand apart in the source and are kept apart here."}
{"molecule": "B1", "values": [{"measurement": "TV(mm^3, mean ± SD) (D 0)", "setting": "[1]; [4]", "value": "130 ± 26", "unit": "mm^3"}, {"measurement": "% Inhibition", "setting": "[1]; [4]", "value": 61, "unit": "%"}, {"measurement": "T/C (%)", "setting": "[1]; [4]", "value": 39, "unit": "%"}, {"measurement": "TV(mm^3, mean ± SD) (D 28)", "setting": "[1]; [4]", "value": "416 ± 166", "unit": "mm^3"}, {"measurement": "TV(mm^3, mean ± SD) (D 0)", "setting": "[1]; [5]", "value": "128 ± 39", "unit": "mm^3"}, {"measurement": "% Inhibition", "setting": "[1]; [5]", "value": 49.82, "unit": "%"}, {"measurement": "T/C (%)", "setting": "[1]; [5]", "value": 50.18, "unit": "%"}, {"measurement": "TV(mm^3, mean ± SD) (D 28)", "setting": "[1]; [5]", "value": "541 ± 196", "unit": "mm^3"}, {"measurement": "TV(mm^3, mean ± SD) (D 0)", "setting": "[1]; [6]", "value": "131 ± 36", "unit": "mm^3"}, {"measurement": "% Inhibition", "setting": "[1]; [6]", "value": 46.37, "unit": "%"}, {"measurement": "T/C (%)", "setting": "[1]; [6]", "value": 53.63, "unit": "%"}, {"measurement": "TV(mm^3, mean ± SD) (D 28)", "setting": "[1]; [6]", "value": "570 ± 144", "unit": "mm^3"}, {"measurement": "tolerability, signs of drug toxicity, changes in weight", "setting": "[1]; 0.05-0.15 mg/mouse i.t. every other day, 28 days", "value": "tolerated the tested dosages and showed no signs of drug toxicity and minimal changes in weight"}, {"measurement": "cell viability at 100 mcg/ml", "setting": "different cancer cells", "value": "cell viability could not be detected"}, {"measurement": "relative mRNA expression level of DKK-3", "setting": "DKK-3", "value": "dramatically increased"}, {"measurement": "relative mRNA expression level of BATF2", "setting": "BATF2", "value": "dramatically increased"}, {"measurement": "relative mRNA expression level of KLF4", "setting": "KLF4; A549 cells", "value": "dramatically increased"}, {"measurement": "relative mRNA expression level of KLF4", "setting": "KLF4; SW620 cells", "value": "dramatically increased as compared to control and IFN alpha-2b treatment"}, {"measurement": "phosphorylation patterns for STAT1, STAT2 and STAT3 (JAK/STATs signaling level)", "setting": "[2]", "value": "no different from that mediated by IFN alpha-2b"}, {"measurement": "mortality", "setting": "[3]; [4]", "value": "one mouse in the 0.05 mg rSIFN-co-treated group died on day 17"}, {"measurement": "TV(mm^3, mean ± SD) (D 0)", "setting": "[3]; [4]", "value": "170 ± 41", "unit": "mm^3"}, {"measurement": "% Inhibition", "setting": "[3]; [4]", "value": 63.68, "unit": "%"}, {"measurement": "RTV (mean ± SD)", "setting": "[3]; [4]", "value": "15.45 ± 9.07"}, {"measurement": "T/C (%)", "setting": "[3]; [4]", "value": 36.32, "unit": "%"}, {"measurement": "TV(mm^3, mean ± SD) (D 21)", "setting": "[3]; [4]", "value": "2244 ± 1043", "unit": "mm^3"}, {"measurement": "TV(mm^3, mean ± SD) (D 0)", "setting": "[3]; [5]", "value": "168 ± 49", "unit": "mm^3"}, {"measurement": "% Inhibition", "setting": "[3]; [5]", "value": 64.95, "unit": "%"}, {"measurement": "RTV (mean ± SD)", "setting": "[3]; [5]", "value": "14.91 ± 11.19"}, {"measurement": "T/C (%)", "setting": "[3]; [5]", "value": 35.05, "unit": "%"}, {"measurement": "TV(mm^3, mean ± SD) (D 21)", "setting": "[3]; [5]", "value": "2388 ± 1544", "unit": "mm^3"}, {"measurement": "TV(mm^3, mean ± SD) (D 0)", "setting": "[3]; [6]", "value": "169 ± 40", "unit": "mm^3"}, {"measurement": "% Inhibition", "setting": "[3]; [6]", "value": 67.75, "unit": "%"}, {"measurement": "RTV (mean ± SD)", "setting": "[3]; [6]", "value": "13.72 ± 3.96"}, {"measurement": "T/C (%)", "setting": "[3]; [6]", "value": 32.25, "unit": "%"}, {"measurement": "TV(mm^3, mean ± SD) (D 21)", "setting": "[3]; [6]", "value": "2284 ± 653", "unit": "mm^3"}, {"measurement": "tolerability, signs of toxicity or weight loss", "setting": "[3]; 0.05-0.15 mg/mouse i.t. every other day, 21 days", "value": "no signs of toxicity or weight loss were observed"}]}
